In PMC6156153:

Biological target: recombinant staphylococcal protein A (SpA) (Staphylococcus aureus) (UniProt P02976)
Chain of UniProt P02976 (P02976 37-485): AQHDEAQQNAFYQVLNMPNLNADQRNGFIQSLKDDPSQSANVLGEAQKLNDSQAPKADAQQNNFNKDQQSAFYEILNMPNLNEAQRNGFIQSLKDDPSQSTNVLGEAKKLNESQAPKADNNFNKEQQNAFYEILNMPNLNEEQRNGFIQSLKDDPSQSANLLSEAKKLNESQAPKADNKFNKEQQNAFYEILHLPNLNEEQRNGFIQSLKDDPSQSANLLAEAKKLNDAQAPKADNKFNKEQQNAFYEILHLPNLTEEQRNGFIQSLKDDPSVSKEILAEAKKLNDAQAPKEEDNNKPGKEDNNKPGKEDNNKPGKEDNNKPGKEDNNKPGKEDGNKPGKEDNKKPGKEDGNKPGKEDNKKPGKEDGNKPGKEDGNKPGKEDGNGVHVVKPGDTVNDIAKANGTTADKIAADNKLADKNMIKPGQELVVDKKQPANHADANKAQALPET

Row | Substance | in vivo depletion of adoptively transferred VHIII (T15i) B cells at 72 h after SpA challenge in muMT mice pretreated with 1 mg of the IgG (told of the IgG3 mAbs together) [% depletion]
1 | recombinant murine VHI isotype control IgG3 (antibody genes of the anti-hen egg lysozyme D1.3 mAb) | 60
2 | recombinant murine VHIII IgG3 (variable regions of the anti-PC TEPC15 clone) (antibody) | 60
